System: small intestinal immune cells
Assay: Droplet-based scRNA-seq of small intestinal immune cells (LP and PP), OVA vs PBS, clustering and differential expression
Type: in vivo, mouse
Details: cluster ID 5, PP
Excerpt: To comprehensively characterize small intestinal immune cells, Applicants generated scRNA-Seq profiles for 58,067 immune cells collected from lamina propria (LP) and Peyer's patch (PP) regions at steady state and after induction of a type 2 inflammatory reaction to ovalbumin (OVA) (Brandt et al., 2003) (FIGS. 1A and 8A). To ensure sufficient representation of rare cells, Applicants combined a normalization strategy—removing by flow sorting either a portion of IgD+ naïve B cells, which are the most abundant cell type in PPs, or all CD19+ and CD3+ T cells (FIG. 8B, Methods)—with profiling of a sufficiently large number of cells number (P>0.99 to recover at least 15 cells from each cluster, Methods) by massively parallel scRNA-seq (Haber et al., 2017) (Methods). Applicants obtained 36,797 and 21,270 high quality cells passing initial filtering (Methods) from PP and LP regions, respectively.
Overall, Applicants annotated 27 cell subsets across the two compartments, spanning T cells, B cells, ILCs, dendritic cells (DCs), myeloid cells and stromal cells, in frequencies ranging from 0.07% to 14%. Briefly, Applicants first partitioned the cells from the PP regions by unsupervised clustering (Methods) into 46 clusters, retained the 97% of cells that were robustly assigned cell identities in each cluster (Methods), assigned the cells from the LP regions to the 46 clusters using a classifier (Methods), and visualized the data with scvis (Ding et al., 2018), a deep generative model-based method (FIGS. 1B and 8C, Methods). Next, Applicants identified genes that were differentially expressed between the cells in each cluster and the remaining cells (Table 1, Methods), as well as between pairs of clusters (Table 2), to elucidate identities of similar cell types/states. Applicants excluded from downstream analysis clusters mostly consisting of contaminants from epithelium, likely doublets, or cells with a small number of Unique Molecular Identifiers (UMIs) (FIGS. 1C and 8D), or lacking distinct markers (Methods). Altogether, Applicants retained 27 clusters spanning 85% of the cells and each associated with distinct marker genes (FIG. 8E, Methods).
To induce allergic reaction to OVA, 6 to 7 weeks old mice were sensitized twice, two weeks apart, with 50 μg of OVA plus 1 mg of aluminum potassium sulfate adjuvant via intraperitoneal injection. Two weeks later, mice were orally administered with 50 mg of OVA on every other day for a total of five times. 1 μg of α-CGRP peptide was administered simultaneously when indicated. Mice were deprived of food for 3-4 hours in cages with wood chip bedding for limiting antigen degradation in the stomach before each intragastric challenge.
Isolation of cells from Peyer's patches (PPs). Peyer's patches (PPs) were carefully dissected from the small intestine under a stereo microscope using a fine scissor, pierced once with a fine forcep. Tissues were digested in freshly made digestion buffer (RPMI-1640 containing 100 μg/ml Liberase™ and 50 μg/ml DNase I at 37° C. on a roto-mixer. After 15 min, tissues were very gently mixed using a 1 ml pipette. The supernatant was collected and added to ice-cold MACS buffer (pH 7.4; PBS plus 2% FCS and 2 mM EDTA). Pre-warmed (37° C.) fresh digestion buffer was added to the remaining tissues. After rotation at 37° C. for 15 min, the mixture was vigorously mixed using a 1 ml pipette for 1 min. Supernatants from the two steps were combined and passed through 70 μm filters and stained for FACS (below).
Isolation of cells from the lamina propria (LP). The small intestines were opened longitudinally and washed in ice-cold PBS. For scRNA-seq, roughly 0.5 cm of fragments from each of the distal, middle and proximal regions without visible PPs were collected. Epithelial cells were dissociated by tissue rotation in pre-warmed (37° C.) PBS containing 10 mM EDTA at 37° C. for 15 min, followed by additional incubation on ice for 15 min. Tissues were then shaken vigorously. […]

B1: OVA (protein, UniProt P01012 2-386, looked up)
Ovalbumin: GSIGAASMEFCFDVFKELKVHHANENIFYCPIAIMSALAMVYLGAKDSTRTQINKVVRFDKLPGFGDSIEAQCGTSVNVHSSLRDILNQITKPNDVYSFSLASRLYAEERYPILPEYLQCVKELYRGGLEPINFQTAADQARELINSWVESQTNGIIRNVLQPSSVDSQTAMVLVNAIVFKGLWEKAFKDEDTQAMPFRVTEQESKPVQMMYQIGLFRVASMASEKMKILELPFASGTMSMLVLLPDEVSGLEQLESIINFEKLTEWTSSNVMEERKIKVYLPRMKMEEKYNLTSVLMAMGITDVFSSSANLSGISSAESLKISQAVHAAHAEINEAGREVVGSAEAGVDAASVSEEFRADHPFLFCIKHIATNAVLFFGRCVSP
  Calm1: percentage of expressing cells in OVA-treated group: 0.868
  Cd74: percentage of expressing cells in OVA-treated group: 0.501
  Crlf3: percentage of expressing cells in OVA-treated group: 0.569
  Ctsc: percentage of expressing cells in OVA-treated group: 0.268
  Ddit4: percentage of expressing cells in OVA-treated group: 0.369
  Dnaja1: percentage of expressing cells in OVA-treated group: 0.591
  Dnajb1: percentage of expressing cells in OVA-treated group: 0.206
  Dusp1: percentage of expressing cells in OVA-treated group: 0.206
  DynIl1: percentage of expressing cells in OVA-treated group: 0.7
  Gramd3: percentage of expressing cells in OVA-treated group: 0.475
  Hspa8: percentage of expressing cells in OVA-treated group: 0.977
  Ier2: percentage of expressing cells in OVA-treated group: 0.428
  Ifngr1: percentage of expressing cells in OVA-treated group: 0.563
  Igha: percentage of expressing cells in OVA-treated group: 0.197
  Il7r: percentage of expressing cells in OVA-treated group: 0.48
  Ilk: percentage of expressing cells in OVA-treated group: 0.2
  Jund: percentage of expressing cells in OVA-treated group: 0.654
  Klf6: percentage of expressing cells in OVA-treated group: 0.368
  Klhl6: percentage of expressing cells in OVA-treated group: 0.332
  Lfng: percentage of expressing cells in OVA-treated group: 0.333
  Ltb: percentage of expressing cells in OVA-treated group: 0.865
  Pdcd4: percentage of expressing cells in OVA-treated group: 0.66
  Pik3ip1: percentage of expressing cells in OVA-treated group: 0.556
  Ppp1r15a: percentage of expressing cells in OVA-treated group: 0.219
  Ppp2ca: percentage of expressing cells in OVA-treated group: 0.277
  Ppp3cc: percentage of expressing cells in OVA-treated group: 0.152
  Racgap1: percentage of expressing cells in OVA-treated group: 0.21
  Rnaset2a: percentage of expressing cells in OVA-treated group: 0.709
  Sfpq: percentage of expressing cells in OVA-treated group: 0.284
  Slc9a3r1: percentage of expressing cells in OVA-treated group: 0.428
  Tdrp: percentage of expressing cells in OVA-treated group: 0.228
  Tpm3: percentage of expressing cells in OVA-treated group: 0.665
  Tsc22d3: percentage of expressing cells in OVA-treated group: 0.84
  Tuba1a: percentage of expressing cells in OVA-treated group: 0.302
  Txnip: percentage of expressing cells in OVA-treated group: 0.605
  Uba52: percentage of expressing cells in OVA-treated group: 0.984
  Ucp2: percentage of expressing cells in OVA-treated group: 0.773
  Wdr89: percentage of expressing cells in OVA-treated group: 0.996
  Zfp36l2: percentage of expressing cells in OVA-treated group: 0.617
OVA vs PBS
  1810037l17Rik: LN (average fold change): −0.158
  Bcl2: LN (average fold change): 0.658
  Calm1: LN (average fold change): −0.192
  Cd74: LN (average fold change): −0.211
  Crlf3: LN (average fold change): 0.370
  Ctsc: LN (average fold change): 0.402
  Ddit4: LN (average fold change): 0.426
  Dnaja1: LN (average fold change): −0.416
  Dnajb1: LN (average fold change): −0.867
  Dusp1: LN (average fold change): −0.321
  DynIl1: LN (average fold change): −0.370
  Gramd3: LN (average fold change): 0.481
  Hspa8: LN (average fold change): −0.255
  Ier2: LN (average fold change): −0.174
  Ifngr1: LN (average fold change): 0.536
  Igha: LN (average fold change): 0.503
  Il7r: LN (average fold change): 0.612
  Ilk: LN (average fold change): 0.159
  Jund: LN (average fold change): −0.319
  Klf6: LN (average fold change): −0.374
  Klhl6: LN (average fold change): 0.485
  Lfng: LN (average fold change): −0.281
  Ltb: LN (average fold change): −0.238
  Pdcd4: LN (average fold change): 0.394
  Pik3ip1: LN (average fold change): 0.361
  Ppp1r15a: LN (average fold change): −0.287
  Ppp2ca: LN (average fold change): −0.469
  Ppp3cc: LN (average fold change): 0.621
  Racgap1: LN (average fold change): 0.436
  Rnaset2a: LN (average fold change): 0.225
  Sfpq: LN (average fold change): −0.373
  Slc9a3r1: LN (average fold change): −0.256
  Tdrp: LN (average fold change): −0.354
  Tpm3: LN (average fold change): 0.282
  Tsc22d3: LN (average fold change): 0.772
  Tuba1a: LN (average fold change): −0.250

— patent US20220143148A1, “COMPOSITIONS AND METHODS FOR MODULATING CGRP SIGNALING TO REGULATE INTESTINAL INNATE LYMPHOID CELLS” (The Broad Institute, Inc., priority 2019, published 2022)
